Results published in publication PMC8527181.

What was measured:
[1] = target: Ptr4CL (endogenous in SDX extract, member not told); test: cross-linking; crude SDX extract (25 mM sodium phosphate buffer, pH 7.4) cross-linked with DSP, SDS-PAGE, western blot with PtrHCT1 and PtrHCT6 specific antibodies
[2] = target: Ptr4CL3-6 × His, recombinant (Populus trichocarpa); test: cross-linking; recombinant Ptr4CL and PtrHCT, 200 nM each in PBS, DSP at 20-fold molar excess, room temperature 5 min, SDS-PAGE, western blot with Ptr4CL3 and PtrHCT1 antibodies
[3] = target: Ptr4CL5-6 × His, recombinant (Populus trichocarpa); test: as above

Substance | stoichiometry N (PtrHCT per Ptr4CL) [1] | stoichiometry N (PtrHCT per Ptr4CL) [2] | stoichiometry N (PtrHCT per Ptr4CL) [3]
PtrHCT1, endogenous in SDX protein extract (enzyme) | 2 |  | 
PtrHCT1-6 × His, recombinant (enzyme) |  | 2 | 2
PtrHCT6, endogenous in SDX protein extract (enzyme) | 2 |  | 
PtrHCT6-6 × His, recombinant (enzyme) |  | 2 | 
